Measured values taken from patent US20170107294A1 (NORDLANDSSYKEHUSET HF, published 2017).

How the values were obtained:
[1] = target: T1, human C1q (hC1q), biotinylated (human, UniProt P02745 23-245; P02746 28-253; P02747 29-245, biotinylated); test: ELISA, coated Ab, biotinylated hC1q
T1 construct: also called complement component C1q
Procedure: (§1) Ninety-six-well plates (Nunc, Roskilde, Denmark) were coated with serial dilution of the Abs (6.0-0.09 mg/ml) and incubated overnight at 4° C. followed by washing three times with PBS/Tween (pH 7.4). The wells were blocked with 4% skimmed milk (Neogen Europe, Auchincruive, U.K.) for 1 h at room temperature and then washed in PBS/Tween (pH 6.0). Purified hFcRn-GST or pFcRn-GST (1 mg/ml) were diluted in 4% skimmed milk in PBS/Tween (pH 6.0) and preincubated with an HRP-conjugated anti-GST Ab (GE Healthcare U.K., Buckinghamshire, U.K.) diluted 1:5000 and added to the wells. The plates were incubated for 1 h at room temperature and washed with PBS/Tween (pH 6.0). Bound receptor was detected by adding 100 ml of 3,39,5,59-tetramethylbenzidine substrate (Calbiochem-Novabiochem, Nottingham, U.K.). The absorbance was measured at 450 nm using a Sunrise TECAN spectrophotometer. The assay described above was also performed using PBS/Tween (pH 7.4) in all steps. The same setup was used with GST-fused versions of hFcgRI, hFcgRIIa (allotype His131), hFcgRIIb, hFcgRIIIa (allotype Val158), and hFcgRIIIb (1 mg/ml each). In addition, a biotinylated human C1q (hC1 q; 4 mg/ml) preparation was incubated with the Abs and detected using ALP-conjugated streptavidin (GE Healthcare). Absorbance was measured at 405 nm.

[2] = target: T2, human FcgRIIb ectodomains fused to GST (human; Schistosoma japonicum, UniProt P31994 43-217); test: ELISA, coated Ab, GST-fused receptor
T2 construct: extracellular domain; also called hFcgRIIb; not shown: Schistosoma japonicum GST
T2 sequence (looked up): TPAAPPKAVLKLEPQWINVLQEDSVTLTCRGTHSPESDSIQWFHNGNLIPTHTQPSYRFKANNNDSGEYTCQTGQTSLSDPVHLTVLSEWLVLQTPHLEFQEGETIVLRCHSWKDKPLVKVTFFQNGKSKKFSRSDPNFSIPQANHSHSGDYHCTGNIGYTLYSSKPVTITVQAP
Procedure: as §1

[3] = target: T3, human FcgRIIIb ectodomains fused to GST (human; Schistosoma japonicum, UniProt O75015 17-200); test: ELISA, coated Ab, GST-fused receptor
T3 construct: extracellular domain; also called hFcgRIIIb; not shown: Schistosoma japonicum GST
Procedure: as §1

[4] = target: T4, human FcgRI ectodomains fused to GST (human; Schistosoma japonicum, UniProt P12314 16-292); test: ELISA, coated Ab, GST-fused receptor
T4 construct: extracellular domain; also called hFcgRI; not shown: Schistosoma japonicum GST
Procedure: as §1

[5] = target: T5, human FcgRIIIa (allotype Val158) ectodomains fused to GST (human; Schistosoma japonicum, UniProt P08637 17-208); test: ELISA, coated Ab, GST-fused receptor
T5 construct: extracellular domain; also called hFcgRIIIa; not shown: Schistosoma japonicum GST
Procedure: as §1

human CD14 = target: T6, human CD14 (human, UniProt P08571 20-345); test: flow cytometry, human whole blood, displacement of 18D11 mIgG1 from monocytes
T6 construct: whole, on cells; also called CD14 on human monocytes
T6 sequence (looked up): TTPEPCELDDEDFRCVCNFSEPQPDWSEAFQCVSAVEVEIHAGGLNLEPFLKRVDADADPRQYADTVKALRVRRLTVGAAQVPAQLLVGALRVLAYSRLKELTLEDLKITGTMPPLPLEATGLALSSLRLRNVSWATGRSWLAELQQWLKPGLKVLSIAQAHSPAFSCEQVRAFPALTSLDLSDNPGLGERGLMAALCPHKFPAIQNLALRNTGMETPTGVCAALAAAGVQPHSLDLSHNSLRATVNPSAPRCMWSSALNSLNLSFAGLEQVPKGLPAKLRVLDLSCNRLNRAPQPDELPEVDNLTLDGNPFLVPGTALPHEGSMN
Source text: Fresh human or porcine whole blood was drawn into tubes containing the anticoagulants lepirudin (Refludan; Pharmion, Copenhagen, Denmark) or EDTA, respectively. […] Endotoxin-free Dulbecco phosphate buffered saline, PBS (Sigma-Aldrich), was used for diluting the Abs. […] Their binding was detected either by using a secondary PEconjugated anti-mouse IgG or through direct FITC fluorescence. Erythrocytes were lysed using FACS Lysing solution (BD Biosciences, Franklin Lakes, N.J.; human blood) or a solution of 0.16 M ammonium chloride, 10 mM sodium bicarbonate, 0.12 mM EDTA (Tritiplex III) and 0.04% (v/v) paraformaldehyde (porcine blood). In subsequent flow cytometry analyses, human monocyte and porcine granulocyte populations were selected based on the forward scatter-side scatter dot plot, and CD14 binding was recorded as mean or median fluorescence intensity, respectively.

T1 sequence (P02745 23-245 limits assumed, chain 1 of 3): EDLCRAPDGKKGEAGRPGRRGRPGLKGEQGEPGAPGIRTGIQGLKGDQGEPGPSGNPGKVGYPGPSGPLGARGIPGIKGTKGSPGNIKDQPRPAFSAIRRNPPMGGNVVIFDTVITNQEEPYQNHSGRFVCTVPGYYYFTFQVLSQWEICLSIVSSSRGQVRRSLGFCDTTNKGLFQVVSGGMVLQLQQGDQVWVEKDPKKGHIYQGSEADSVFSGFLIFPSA
T1 sequence (P02746 28-253 limits assumed, chain 2 of 3): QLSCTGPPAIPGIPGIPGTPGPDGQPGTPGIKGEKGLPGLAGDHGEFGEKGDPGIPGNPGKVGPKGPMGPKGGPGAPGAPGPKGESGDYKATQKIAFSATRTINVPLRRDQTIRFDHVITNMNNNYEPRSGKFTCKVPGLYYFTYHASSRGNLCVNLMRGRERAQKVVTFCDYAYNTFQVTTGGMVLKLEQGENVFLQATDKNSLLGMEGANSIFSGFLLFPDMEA
T1 sequence (P02747 29-245 limits assumed, chain 3 of 3): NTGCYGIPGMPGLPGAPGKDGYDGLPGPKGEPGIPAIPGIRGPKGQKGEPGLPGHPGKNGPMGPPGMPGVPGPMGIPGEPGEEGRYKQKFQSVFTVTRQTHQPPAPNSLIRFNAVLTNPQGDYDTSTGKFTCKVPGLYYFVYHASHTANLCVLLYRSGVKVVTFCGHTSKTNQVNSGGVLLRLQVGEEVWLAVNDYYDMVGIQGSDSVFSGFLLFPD

B1: recombinant 18D11 (r18D11), recombinant anti-human CD14 IgG2/4 Ab (antibody)
heavy: EVQLVESGGGLMQPKGSLKLSCAASGFTFKTYALNWVRQAPGTGLEWVARIRSKSNNYTTYYADSVKDRFTISRDDSQNMLYLQMNNLKTEDTAMYYCVRPQSGTSFAYWGQGTLVTVSAASTKGPSVFPLAPCSRSTSESTAALGCLVKDYFPEPVTVSWNSGALTSGVHTFPAVLQSSGLYSLSSVVTVPSSNFGTQTYTCNVDHKPSNTKVDKTVERKCCVECPPCPAPPVAGPSVFLFPPKPKDTLMISRTPEVTCVVVDVSQEDPEVQFNWYVDGVEVHNAKTKPREEQFNSTYRVVSVLTVLHQDWLNGKEYKCKVSNKGLPSSIEKTISKAKGQPREPQVYTLPPSQEEMTKNQVSLTCLVKGFYPSDIAVEWESNGQPENNYKTTPPVLDSDGSFFLYSRLTVDKSRWQEGNVFSCSVMHEALHNHYTQKSLSLSLGK
light: NIVLTQSPASLAVSLGQRATISCRASESVDSYGNSFMHWYQQKPGQPPKLLIYLASNLESGVPARFSGSGSRTDFTLTIDPVEADDVATYYCQQNNGDPYTFGGGTKLEIIRTVAAPSVFIFPPSDEQLKSGTASVVCLLNNFYPREAKVQWKVDNALQSGNSQESVTEQDSKDSTYSLSSTLTLSKADYEKHKVYACEVTHQGLSSPVTKSFNRGEC
notes: Mouse/human chimera: murine variable regions, human IgG2/4 hybrid heavy constant region (CH1 and hinge from IgG2, CH2 and CH3 from IgG4), human kappa; Made in HEK293-EBNA cells; also called recombinant anti-human CD14 Ab
Question: What does the source list for B1?
Answer: binding result [1]: no binding; binding result [2]: no binding; binding result [3]: no binding; binding result [4]: no binding; binding result [5]: no binding

B2: recombinant Mil2 (rMil2), recombinant anti-porcine CD14 IgG2/4 Ab (antibody)
heavy: QVRLQQPGAELVRPGASVKLSCKASGYTFTTYWMNWVKQRPEDGLEWIGRIDPYDSETHYNQNFKDKAILTVDKSSSTAYMQLSSLTYEDSAVYYCTRKEGRQWGAYFDYWGQGTTLTVSSASTKGPSVFPLAPCSRSTSESTAALGCLVKDYFPEPVTVSWNSGALTSGVHTFPAVLQSSGLYSLSSVVTVPSSNFGTQTYTCNVDHKPSNTKVDKTVERKCCVECPPCPAPPVAGPSVFLFPPKPKDTLMISRTPEVTCVVVDVSQEDPEVQFNWYVDGVEVHNAKTKPREEQFNSTYRVVSVLTVLHQDWLNGKEYKCKVSNKGLPSSIEKTISKAKGQPREPQVYTLPPSQEEMTKNQVSLTCLVKGFYPSDIAVEWESNGQPENNYKTTPPVLDSDGSFFLYSRLTVDKSRWQEGNVFSCSVMHEALHNHYTQKSLSLSLGK
light: DIVMTQSQKFMSTSVGDRVSVTCKASQYVGTNVAWYQQKPGQSPKALIQSASYRCSGVPDRFTGSGSGTDFTLTISNVQSEDLADYFCQQYNTYVTFGGGTKLELKRTVAAPSVFIFPPSDEQLKSGTASVVCLLNNFYPREAKVQWKVDNALQSGNSQESVTEQDSKDSTYSLSSTLTLSKADYEKHKVYACEVTHQGLSSPVTKSFNRGEC
notes: Mouse/human chimera with human IgG2/4 hybrid heavy constant region and human kappa
Question: Which results are given for B2?
Answer: binding result [1]: no binding; binding result [2]: no binding; binding result [3]: no binding; binding result [4]: no binding; binding result [5]: no binding

B3: 18D11 IgG1 F(ab')2 (Diatec) (other)
VH: EVQLVESGGGLMQPKGSLKLSCAASGFTFKTYALNWVRQAPGTGLEWVARIRSKSNNYTTYYADSVKDRFTISRDDSQNMLYLQMNNLKTEDTAMYYCVRPQSGTSFAYWGQGTLVTVSAA
VL: NIVLTQSPASLAVSLGQRATISCRASESVDSYGNSFMHWYQQKPGQPPKLLIYLASNLESGVPARFSGSGSRTDFTLTIDPVEADDVATYYCQQNNGDPYTFGGGTKLEIIR
notes: F(ab')2 fragment of the mouse IgG1 clone 18D11, bought; also called 18D11 F(ab)92; F(ab9)2 18D11
Question: Does B3 bind (human CD14)?
Answer: Result: binds
